Data published in patent US20240287172A1 (SCIRHOM, published 2024).

Key:
[1] = target: T1, human iRhom2, endogenously expressed (human, UniProt Q6PJF5 1-856); experiment: cell-based or functional assay
T1 sequence: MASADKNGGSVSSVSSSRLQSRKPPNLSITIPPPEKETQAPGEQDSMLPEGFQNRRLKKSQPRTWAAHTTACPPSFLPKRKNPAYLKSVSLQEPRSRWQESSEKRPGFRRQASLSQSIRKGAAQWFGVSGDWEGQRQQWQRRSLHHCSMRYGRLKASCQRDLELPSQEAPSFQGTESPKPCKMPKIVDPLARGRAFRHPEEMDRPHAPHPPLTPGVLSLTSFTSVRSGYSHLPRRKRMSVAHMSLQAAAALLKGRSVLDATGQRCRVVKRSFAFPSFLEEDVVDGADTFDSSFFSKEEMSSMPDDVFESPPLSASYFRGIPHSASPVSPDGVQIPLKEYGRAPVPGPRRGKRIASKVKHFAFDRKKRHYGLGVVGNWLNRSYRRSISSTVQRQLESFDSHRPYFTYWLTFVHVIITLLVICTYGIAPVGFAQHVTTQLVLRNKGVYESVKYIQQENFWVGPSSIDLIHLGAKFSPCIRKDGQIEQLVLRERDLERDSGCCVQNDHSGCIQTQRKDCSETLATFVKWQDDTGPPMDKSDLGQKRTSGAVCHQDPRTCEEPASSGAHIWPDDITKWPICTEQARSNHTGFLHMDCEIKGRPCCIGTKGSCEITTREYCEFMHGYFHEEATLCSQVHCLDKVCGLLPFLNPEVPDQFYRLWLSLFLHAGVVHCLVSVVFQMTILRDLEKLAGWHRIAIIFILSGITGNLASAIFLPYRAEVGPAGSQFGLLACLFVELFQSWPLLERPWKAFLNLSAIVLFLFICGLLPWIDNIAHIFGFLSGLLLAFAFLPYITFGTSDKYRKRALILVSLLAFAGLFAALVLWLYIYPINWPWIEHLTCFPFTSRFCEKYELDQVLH

[2] = target: T1, human iRhom2, endogenously expressed; experiment: indirect FACS scatchard analysis on THP-1 cells
Protocol: In brief, human THP-1 cells (American Type Culture Collection, USA) were harvested with 10 mM EDTA in PBS, washed and resuspended in FACS buffer (PBS, 3% FBS, 0.05% sodium azide), and seeded in Nunc U-bottom 96-well plates (Thermo Fisher Scientific, USA) at approximately 3×10⁵ cells per well. In order to pellet cells and remove supernatants, the plates were centrifuged at 1,500 rpm and 4° C. for 3 minutes. For primary staining, cells were resuspended in 100 μl per well of either FACS buffer alone (controls) or serial two-fold dilutions (in total 22 concentrations) of the purified antibodies 3, 5, 16, 22, 34, 42, 43, 44, 48, and 50 of the invention in FACS buffer starting at 40 μg/ml and incubated on ice for 1 hour. Afterwards, plates were centrifuged at 1,500 rpm and 4° C. for 3 minutes and washed twice with 200 μl per well of FACS buffer. For secondary staining, cells were spun down and resuspended in 100 μl per well of PE-conjugated goat anti-mouse IgG F(ab′)2 detection fragment (Dianova, Germany) diluted 1:100 in FACS buffer. Protected from light, the cell suspensions were incubated on ice for 1 hour. Plates were then centrifuged at 1,500 rpm and 4° C. for 3 minutes and washed three times with 200 μl per well of FACS buffer. Finally, cells were resuspended in 150 μl per well of FACS buffer and analyzed using a BD Accuri™ C6 Plus flow cytometer (Becton Dickinson, Germany). Applying Prism8 software (GraphPad Sowtware, USA), the respective KD value for each of the antibodies of the invention were calculated.

B1: antibody 46 (antibody, V domains shown)
VH: QVTLKESGPGILQPSQTLSLTCSFSGFSLSTFGMGVGWIRQPSGKGLEWLAHIWWDDDNYYNQALKSRLTISKDNTKNQVFLNIANVDTADTATYYCARIRSYDYDVRYAMDYWGQGTSVTVSS
VL: DIKMTQSPSSMYASLRERVTITCKASQDINSYLSWFQQKPGKSPKTLIYRANRLVDGVPSRFSGSGSGQDYSLTISSLEYEDLGIYYCQQYYEFPLTFGAGTRLELK
notes: mouse IgG, kappa light chain; also called clone #46
LPS-induced TNFα release from THP-1 cells, percent inhibition, recombinant antibody [1]: 36.1%

B2: antibody 5 (antibody, V domains shown)
VH: QVTLKESGPGILQPSQTLSLTCSFSGFSLSTFGMGVGWIRQPSGKGLEWLAHIWWDDEKYYNSALKSRLTISKATSKNQAFLKIANVDTADTATYYCARISNYGSNYWYFNVWGTGTTVTVSS
VL: QVVLTQSPALMSASPGEKVTMTCSAGSSVSCMYWYQQKPGSSPRVLIYDTSNLASGVPARFTGSGSGTSYSLTISRMEAEDAASYYCQQWNSYPLTFGAGTKLELK
notes: mouse IgG, kappa light chain; also called clone #5; purified antibody 5
LPS-induced TNFα release from THP-1 cells, percent inhibition, 10 µg/ml, hybridoma-purified [1]: 69%
LPS-induced TNFα release from THP-1 cells, percent inhibition, recombinant antibody [1]: 70.5%
PMA-induced IL-6R release from THP-1 cells, percent inhibition, 1 µg/ml [1]: 64.1%
PMA-induced IL-6R release from U-937 cells, percent inhibition, 1 µg/ml [1]: 67%
PMA-induced TNFα release from U-937 cells, percent inhibition, 1 µg/ml [1]: 63.6%
Kd [2]: 3.35 nM

B3: antibody 57 (antibody, V domains shown)
VH: QVTLKESGPGILQPSQTLSLTCSFSGFSLSTFGMGVGWIRQPSGKGLEWLAHIWWDDDKYYNPALKSRLTISKDTSKNQIFLKIANVDTADSATFYCARIENYGSNYWYFDVWGTGTTVTVSS
VL: QIVLTQSPAIMSASPGEKVTMTCSASSSVSYMYWYQQKPGSSPRVLIYDTSNLASGVPVRFSGSGSGTSYSLTVSRMEAEDAATYYCQQWNSYPLTFGAGTKLELK
notes: mouse IgG, kappa light chain; also called clone #57
LPS-induced TNFα release from THP-1 cells, percent inhibition, recombinant antibody [1]: 59.7%

B4: antibody 54 (antibody, V domains shown)
VH: QVTLKESGPGILQPSQTLSLTCSFSGFSLSTFGLGVGWIRQPSGKGLECLAHIWWDDDKYSNPALKSRLTISKDTSKNQVFLKIANVDSADTATYFCARILNYGSNYWYFDVWGTGTTVTVSS
VL: QIVLTQSPALMSASPGEKVTMTCSASSSISYMYWYQQKPGSSPRLLIYDTSNLASGVPVRFSGSGSGTSFSLTVSRMEAEDAATYYCQQWNSYPLTFGAGTKLELK
notes: mouse IgG, kappa light chain; also called clone #54
LPS-induced TNFα release from THP-1 cells, percent inhibition, recombinant antibody [1]: 67.9%

B5: antibody 22 (antibody, V domains shown)
VH: QVTLKESGPGILQPSQTLSLTCSFSGFSLSTFGMGVGWIRQPSGKGLEWLAHIWWDDEKYYNSALKSRLTISKATSKNQVFLKIANVDTADTATYYCARISNYGSNYWYFNVWGTGTTVTVSS
VL: QVVLTQSPALMSASPGEKVTMTCSAGSSVSYMYWYQQKPGSSPRVLIYDTSNLASGVPARFTGSGSGTSYSLTISRMEAEDAATYYCQQWNSYPLTFGAGTKLELK
notes: mouse IgG, kappa light chain; also called clone #22; purified antibody 22
LPS-induced TNFα release from PBMCs of healthy donors, percent inhibition, 1 µg/ml [1]: 72.8%
LPS-induced TNFα release from THP-1 cells, percent inhibition, 10 µg/ml, hybridoma-purified [1]: 78.8%
LPS-induced TNFα release from THP-1 cells, percent inhibition, recombinant antibody [1]: 78.4%
LPS-induced TNFα release from human macrophages of healthy donors, percent inhibition, 10 µg/ml [1]: 78.8%
PMA-induced HB-EGF release from PBMCs of healthy donors, percent inhibition, 1 µg/ml [1]: 56.5%
PMA-induced HB-EGF release from THP-1 cells, percent inhibition, 3 µg/ml [1]: 77.7%
PMA-induced HB-EGF release from U-937 cells, percent inhibition [1]: 101%
PMA-induced IL-6R release from PBMCs of healthy donors, percent inhibition, 1 µg/ml [1]: 79.3%
PMA-induced IL-6R release from THP-1 cells, percent inhibition, 1 µg/ml [1]: 67.4%
PMA-induced IL-6R release from U-937 cells, percent inhibition, 1 µg/ml [1]: 74.5%
PMA-induced IL-6R release from U-937 cells, percent inhibition, 3 µg/ml [1]: 79%
PMA-induced TGFα release from PC3 cells, percent inhibition, 1 µg/ml [1]: 12.7%
PMA-induced TNFα release from U-937 cells, percent inhibition, 1 µg/ml [1]: 86.1%
PMA-induced TNFα release from U-937 cells, percent inhibition, 3 µg/ml [1]: 93.1%
Kd [2]: 2.04 nM

B6: antibody 49 (antibody, V domains shown)
VH: QVTLKESGPGILQPSQTLSLTCSFSGFSLSTFGMGVGWIRQPSGKGLEWLAHIWWDDDKYYNPALQSRLTVSKDTAKNQVFLKIANVDTADTAIYYCARVGNYGSNYWYFAVWGTGTTVTVSS
VL: QIVLTQSPAIMSASPGEKVTMTCSASSSVSYMYWYQQKPGSSPRLLIYDTSNLASGVPVRFSGSGSGTSYSLTISRMEAEDAATYYCQQWNSYPLTFGAGTKLELK
notes: mouse IgG, kappa light chain; also called clone #49
LPS-induced TNFα release from THP-1 cells, percent inhibition, recombinant antibody [1]: 59.9%

B7: antibody 56 (antibody, V domains shown)
VH: QVTLKESGPGILQPSQTLSLTCSFSGFSLSTFGMGVGWIRQPSGKGLEWLTNIWWDDDKYYNSVLKSRLTISKDTSKNQVFLKIANVDTADTATYYCARIAAYGSNYWYFDVWGTGTTVTVSS
VL: QIVLTQSPAIMSASPGEKVTMTCSASSSVSYMYWYQQKPGSSPRVLIYDTSNLSSGVPVRFSGSGSGTSYSLTISRMEAEDAATYYCQQWSSYPLTFGAGTKLELK
notes: mouse IgG, kappa light chain; also called clone #56
LPS-induced TNFα release from THP-1 cells, percent inhibition, recombinant antibody [1]: 65.8%

B8: antibody 16 (antibody, V domains shown)
VH: QVTLKESGPGILQPSQTLSLTCSFSGFSLSTFALGVGWIRQPSGRGLEWLAHIWWDDDKYYNPALKSRLTISKDTSKNHVFLKIANVDTADTATYYCARITTYYYGMDYWGQGTSVTVSS
VL: DIVLSQSPATLSVTPGDSVSLFCRASQSIGNHLHWYQQESHASPRLLIKYASQSISGIPSRFSGSGSGTDFTLSINSVETEDFGMYFCQQSYNWPLTFGAGTKLELK
notes: mouse IgG, kappa light chain; also called clone #16; purified antibody 16
LPS-induced TNFα release from PBMCs of healthy donors, percent inhibition, 1 µg/ml [1]: 81.3%
LPS-induced TNFα release from THP-1 cells, percent inhibition, 10 µg/ml, hybridoma-purified [1]: 65.4%
LPS-induced TNFα release from THP-1 cells, percent inhibition, recombinant antibody [1]: 70.7%
LPS-induced TNFα release from human macrophages of healthy donors, percent inhibition, 10 µg/ml [1]: 85.8%
PMA-induced HB-EGF release from PBMCs of healthy donors, percent inhibition, 1 µg/ml [1]: 71.6%
PMA-induced HB-EGF release from THP-1 cells, percent inhibition, 3 µg/ml [1]: 71.9%
PMA-induced HB-EGF release from U-937 cells, percent inhibition [1]: 99.6%
PMA-induced IL-6R release from PBMCs of healthy donors, percent inhibition, 1 µg/ml [1]: 84.3%
PMA-induced IL-6R release from THP-1 cells, percent inhibition, 1 µg/ml [1]: 72.5%
PMA-induced IL-6R release from U-937 cells, percent inhibition, 1 µg/ml [1]: 77.7%
PMA-induced IL-6R release from U-937 cells, percent inhibition, 3 µg/ml [1]: 77.4%
PMA-induced TGFα release from PC3 cells, percent inhibition, 1 µg/ml [1]: 13.9%
PMA-induced TNFα release from U-937 cells, percent inhibition, 1 µg/ml [1]: 91.6%
PMA-induced TNFα release from U-937 cells, percent inhibition, 3 µg/ml [1]: 91.9%
Kd [2]: 0.34 nM

B9: antibody 48 (antibody, V domains shown)
VH: QVQLQQSGTELVRPGTSVKVSCKASGYAFTNYLIEWVKQRPGQGLEWIGVINPGSGFTKYNEKFKGKATLTADKSSSTVYMHLSSLTSEDSAVYFCARGLYRAMDYWGQGTSVTVSS
VL: DIQMTQSPASQSASLGESVTITCLASQTIATWLAWYQQKPGKSPQLLIYGATTLADGVPSRFSGGGSGTKFSFKISSLQAEDFVSYYCQQLYSTPYTFGGGTKLEIK
notes: mouse IgG, kappa light chain; also called clone #48; purified antibody 48
Kd [2]: 1.73 nM

B10: antibody 50 (antibody, V domains shown)
VH: QVQLQQSGAELVRPGASVKVSCKASGYAFSNYLIEWVKQRPGQGLEWIGVINPGSGFTKYNEKFKGKATLTADKSSSTAYMQLSSLTSEDSAVYFCARGLYRAMDYWGQGTSVTVSS
VL: DIQMTQSPASQSASLGESVTITCLASQTIGTWLAWYQQKPGKSPQLLIYAAASLADGVPSRFSGGGSGTKFSFKISSLQAEDFVNYYCQQIYSTPYTFGGGTKLEIK
notes: mouse IgG, kappa light chain; also called clone #50; purified antibody 50
Kd [2]: 1.43 nM
